Values joined by “and” are separate entries in the source; they are usually repeats but may differ in a detail not shown here. Equal values may be shown once.

The values below come from PMC11655906.

The target of the assay is mouse Flower isoform 4 with C-terminal mTFP (mFwe4-mTFP) (mouse). In words: native gel or EMSA; native PAGE (4-16% Bis-Tris, G-250 additive) of lysates of transfected Fwe KO mouse CTLs (modified RIPA: 50 mM Tris pH 7.5, 50 mM NaCl, 1% Triton-X-100, 1 mM EDTA), western blot with anti-DsRed recognising mTFP; oligomeric state read from band size. On the technique in general: A gel shift assay detects complexes by their altered migration in electrophoresis.

Chain of mouse Flower isoform 4 with C-terminal mTFP (mFwe4-mTFP) (natural protein) (Q8BG21 whole entry, canonical isoform): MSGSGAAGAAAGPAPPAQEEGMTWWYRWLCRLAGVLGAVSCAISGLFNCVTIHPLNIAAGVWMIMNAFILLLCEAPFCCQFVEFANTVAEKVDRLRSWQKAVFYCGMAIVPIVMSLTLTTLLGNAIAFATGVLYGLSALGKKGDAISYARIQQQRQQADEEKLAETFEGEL

As a reminder, the stoichiometry N is the number of molecules, sites or subunits per partner or assembly. As to “mouse Flower isoform 4 with C-terminal mTFP (mFwe4-mTFP) (natural protein)”, the stoichiometry N is 4 and 6.
